The values below come from patent EP2130555A1.

Experiment [1] addresses hexahistidine-tagged bacterial gyrase subunit B (GyrB) of E. coli (E. coli) (UniProt P0AES6). Kind of experiment: cell-based or functional assay.
Experiment [2] has the same target. Put plainly: ultrafiltration through a 50 kDa cut-off filter, without coumermycin (monomer passes the filter).
The target is the same in experiment [3]. Kind of experiment: ultrafiltration through a 50 kDa cut-off filter, with coumermycin (GyrB : coumermycin = 2:1; dimer is held back).

Regarding “hexahistidine-tagged bacterial gyrase subunit B (GyrB) of E. coli (from UniProt P0AES6 1-220) (enzyme)”, the hydrogel dissolution in PBS with 1 mM novobiocin, followed by release of GyrB-polymer complexes into the buffer in experiment [1] came to 11 h. The substance also came in with a stability of hydrogels with DMS-crosslinked GyrB dimers in PBS with 1 mM novobiocin in experiment [1] of 31 h. Further, the % of protein in filtrate in experiment [2] came to 54%; in experiment [3] it was 2.8%.
